The supplement of paper PMC12636428

System: Saccharomyces cerevisiae
Experiment: transcriptional activation domain activity (GFP:mCherry ratio, weighted mean of sorted bins, harmonized to initial dataset scale) (arbitrary fluorescence ratio units); higher = stronger transcriptional activation
Conditions: beta-estradiol 1 µM; induction time 4 h
In short: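 In diploid yeast carrying a GFP reporter, barcoded protein tiles fused to an estradiol-inducible synthetic transcription factor were integrated at the URA3 locus. Cultures diluted 1:5 into SC with 1 uM beta-estradiol were kept at 30 °C for 4 hours, then sorted by GFP:mCherry ratio into 8 bins before barcode sequencing. Tiles with under 50 reads were excluded. The activation activity reported here is the read-weighted mean of bin median fluorescence, averaged across barcodes and linearly rescaled to the initial dataset.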

Sequence | transcriptional activation domain activity
LLQSLKRTTEIPVKDAFLGLLRADACFCIYRMLRCTNVNLPICRLTGLLDVIR | 61400
MGVFILFAFLFFLMFVLLHFFLLLSFFLLSSLMGVYFFPHSMITYMFSFGLRS | 44100
MLLRRAVSLGVEGFFIFFYFLLMGLHCICLRGSSPWVDMFLFFVFFVSLVGFF | 72200
GGGSAVWIFLYCVWYYFVKLQITGFLSSLLFFSYSLMACCVYGLLTGMVGFLT | 60400
MSSLFFSFQAVQFWFLGFLGLSWFRLVSTSYNIVDFLSFLSVHHHVLSWLGIP | 63500
MSGVGKLYRMGCWHGSHLPFIYFGHFILPFLLCLRPILSSVFFIYFFHLLCFF | 47000
WLILIRIINPIIMYFFVSCFYSLLSLAFQVPFNRFYGSSGFVIYWMMSWMAMC | 47100
VLDLVCIKFLSLFTFYIFLLLYLSIFQIICFFLFPFLFLFFPSCPLRRFLFSY | 47000
MAKCIVTQTFLAASKTKTGYTIHQIRYTMTFWEIYENLLAIYLLIHPQWHLSF | 40200
LIVVCPCLNRAHPTCLKELQTDYICNMCNSIYQLKYIRFAQLLCFACHVLSLA | 84300
RIAKRRRKDGEPMLYAPDELKEGRWAPKELIKTMARLRRSIQIVLCLSLLSGF | 77000
RRTPFLGVGRSEGKMRLEKFVDEIGQQREDGTDEFLVRGSKEEKTDVVTAVNH | 9610
TLHVCFVEMRLADVVVDFLSRCSATINLAFFDTRLWHPNLLPILGALPLQRLS | 87200
ITFLFIFFFYFFTYSFFYISFFRTCFPEFAHQMFEMVLLWNLFLLFVFCLFFF | 57600
GWKGRGKSGGRGRKTSGGGLKTERKSGGVSKASGGGGSSSRGGRGAGAGAGAG | 14100
MTKPIIIKINHIFALRHYYLPYFHPYILFVFFSSLFTLRGTMWLILLFFGSFA | 50300
SREQPPSGQSRETLQKRVLHVRSVGRVTKGGKIRSASAIVVVGNGNGIGGYGE | 38900
MDNKSSKSPGNIPKHRACDECRSRKLACSKEPDGCARCKRERIKCHYSPQKPM | 34700
MVVVSCLSGAFLFFLFVHVVSGALFTYYSLLSLIFSLYHSILFVCWADLFFFF | 57100
RIVIPIRLVLLVFVTMASYLLFAMIIYACQNEWLYPFLSWDQGPVAVLWYLLL | 42800
IDGVWFAYCHLSLFALLGEHISLNATNSEFPLVPSQSWKWDDFLFSISFLETL | 71300

Sequence | transcriptional activation domain activity
GKADKKETANGKSTDSKTAGGNANSTARKRKTSNASVQDQKAAKATTTAASRK | 27600
ICNFFYKNILGMGVLFWYQIYCGWSSTYVYNYVYLLFWNVFWTLCPVIAIGLF | 41800
MLRCLLSFLLYIYQFKYCNAQVSINVPIDGRQFKFIESFQFLNLPFNVITSTV | 67900
IVCGCMGAAGFRYFLNLPFLWFFLLHWCWWFTNDYLLYHVLVQEHTLPFNKFV | 32500
IPSLLSLSFYCLGFLSFAISSFSFPSFPLYHYPLCLGFLYSAGWLVGGYLWLY | 77000
KGGEKKEGEEQNGGGEKKGGEEQKGGGEKKGRWVEEKGGEEQKGGAIAAAGQN | 14200
FRNGPWWCLAHYIMRAMAVFLLAMSPQVLQVHTDLVLPVKKLIRWLQWMRQDD | 64200
NAEYICHYKGGLIGKHFKSLAQVMPFLIQDLLLRTVLDGWTCIGELVVYVWHM | 65800
DQTICAEVMRCCESNVVAFRRLVHMIQIQLRNIGIMADIRLVRNLVLVLHGAL | 62000
AAGAAGAKASKAPKASKAAKAPKASGAAGAKKGGKKAGKGAASSGAAKAPAAT | 42400
VIVIVMLFFLFYFNRLLGFVISKIVSYWTWKLYSAHIEIESIKFALLGGRISF | 55200
TGWCCLLMSIFSFNHAVLFVAFIFPNGVSCRKLLWNAMIGYVISLECSNLLLL | 60800
PRVLHGLELICHIAYLIIILHFIFDWRIDGHMPEWRFYGAREYILFIYSLSIL | 31100
RKLLIALDMRLQNIRSNWKEHHSLTVVIQLTLRLLSLGLSSEVVAGCLDLLKS | 64700
ENNNYAVDLAKSNGMHIVGIQGSDIVDGRKTLVLGLVWQLMRLSIYKTLSSLT | 41900
LFFYFFIFLFFYFFILLFYYFIILLFYYLFFFFATVLILILLFFFFFFTYQRT | 47600
EDCDFLGDDTCSIVNHINCQHGINFDIQFANPDSFLPGSISKEKHHLLHCPNP | 77900
KASKSKKRKHHHHKSAVSSPEASDADTASQSSKRSKKSKRRHADADARAAANG | 36700
MYICVRKVYVHFDMNLRVYWIVAIMVKCICGLVELCLITSPPYIMLVLSKLFL | 32100
MFCFFEFLFFYKEDLAAYALCSCSQLPASFFLFLFPSPLWLFFFFFIFCLTFM | 38900
KIHLVNIAQVVVFFIYRFLYGLIPLFEISTCAYYPLLVSLWHLDYLLFYTVMF | 64000

Sequence | transcriptional activation domain activity
LGSLTFLDNAFQLDLEFLLSSNMTMPSPLDTCFDFLFPFTQMPSLEPCTFPPV | 138000
LIIPIIMDHLYPVPYMAFWDVSCFVNKVYFMQIVWLFNLPFLLHLLITLICYP | 68100
DSGGDRSTSPDSDRDKENKKASDKTEDSDKETQENGEEEKGGEKERESKKGEK | 16700
MWTFGMIQLYYSPYWGDTRWFWLDYPKTLLSPTFKWYYLIQFAFWLQQLLLAL | 73400
TIPGLIRTSPRFGIMLLCLLLSIIFLFTDVIFMIVVSRRGGMNPFWRLALVFK | 52600
VQRLHALEKHEYDVCTNLEACLRFGLWAQRGVLSLWHLDLLNGTWMTCLSGVK | 39600
SWRRLPLAMLNFSRAVTFRWTIIIARTYSLNLADVLLTGMYITILFTWNFHNS | 40000
MCNLFSFSVQSISGNGVLYIFSFKVLYTFLPSPLLFLSFFSLLFYFFILSLFS | 38400
RVFTVPGKCFFDALAADSTDASCTEESLKKIWNELHTTSSEIEPWSNGYIDIS | 98000
MTDRCRVRCTKLIIIIKGIFFWVSLVSLLFFFLLILSAFSFFLLLLLYYLFTI | 46200
MGLYIFIFSFSFFLFFFFFFFFFFFVLGLVFVSMRTERLLSSQYFFFFWFFSG | 27800
MGRLLLLICFNTSGRLPFLLPLLLFFFFLLFFLYPPLHIFSFSFSLSPSNVPP | 35200
QEQEQEGMELGIKEGPADPRCKTCGRTEGTRKCTGCGRVRYCGRECQKKDWKV | 29700
KLGPTPQCLDGFFFFSLLALASLHPVSPCLLFFFFFLLWFPSSFFWPSVLQVQ | 62500
TGKRKFRSSFLLYLAARWCPLFCVITILVGVDPINRINCQAYVVFAFLFANIS | 52000
PSPRRRRDEDRPRRGGGGFRWKGEERRDRRERPRSPRPEKRRRSKSPRPEKKK | 27500
MGFCSLYGSIFLFLFLVFFLLFFSSSVGNGASFFFFFPSILFWYSLYPLFTSF | 35900
MFAKILVLSWFDSIRWGLFLLLCVMGVFLLFDIPFFLFPTCFLCLVFPFLLAK | 20400
RKVGFILYVIMHMRINIVFAAFRLAKFNINPNSVYIKIINCVIKYLLKTMDYF | 44700
ALVADPEYQRELDYMANGKQLLVPLRYLLNLVWRYCHGAQTICFSFFLLHGRN | 64200
SRIRAKRIYTKLNLFFRSAFLSYTDFKQTIIVLVSLLKLSLNLWDIVKLMCPQ | 47400

Sequence | transcriptional activation domain activity
SEAESEAEAEAEEATEPEVSQEKPKRGRKKKEVEVEIKEKPSRKPAGRPKKEK | 12300
RHLPAVNGGKLTSYAIVGEGSMSPHFVWTAHHAVYVVDGWSLALLFRKVELRY | 48200
ADADAGKEAEGGAGGKRCKGCGKGEGEGEEGGLRRCARCKVVVYCGRECQKRD | 36700
LFTSLLTSPFLFSLPLLSISASSFLIPPSPFHSLFLPLSLPFPLLYPFPSLFF | 49800
ALKKKDGDKDSADFLSQLRMGKSVLHGVDKEGRPVVSVRVRLHKGGEQTEKSL | 36600
LHQRVHEQGLYDCHYSNYFIDLLRYLVLLGLFVVSFYKEYYLVSSCFLGCFWH | 57400
QANGVEKAVENLSISSPHPDTHAQSAPEQNGPKKKPNRAKARLARRAAEYEAL | 14100
MLPTLRMLLGLICIAFLNRHCYGYSSRQMPMFAEAACFRIAHVLSPASAVYYP | 59700
MVLVIQFYTVFFSFVYYFIFFSSSNLFSILCPPPPPPIIPIFCPLVGAFGFLF | 42000
QQTGKGKIHRQYALVVVGNGDGLVGYGEGKDEELPRASDKAFAAAVRNMDHVE | 43700
ALVLLYIIRFVCTTLAKRFPSKSKLFFFMSTLRTVFVILLYTMISWLVNRHSR | 44800
RRDILHRAIVFEGDAARSGTASTKWRSEVRGSARKMRPQKGSGRARLGDKKSP | 15600
IQFSLIPLSILSFCINHFGLGCDVWTVSFAHITDVLHITYWVEILYTLCLYFV | 40700
EVIAGQQYAGLSFFAFVLRQDDIKSLDLILAEYFKVPTALDIIRSSLYLAIYS | 48600
YVKSRGYKTIIRFFPHEVADLELARACMRGAAREPRQWALRYAALLWLALICM | 68700
EKPAEAAPAEAIPAEPEAVEEEKPKSPAPTPAAAPAKGTTPSPEKENVAPAKA | 24800
TLTSPQGSDLASNSATQYKPDLEDFLMQNSNFNGLMINPSSLVEVVGGYNDPN | 83200
NYVMLCSVYTTVHIHKHGRDAWKLMIRERSWKYILFAMADLQGNLFVLYAFRN | 59300
MPQESKGKASAAAQRAHEKESKRARGALSCAECRRLKLKCDKSVPCSSCVRRG | 44700
LFVFLLFVLFLLVLFMLVLLLLFLPLLLLLPLLLWILWILILRLFFSFLDISD | 36900
